Where no end group is shown, it is not given here.
Experiments:
[1] = target: T1, SARS-CoV-2 S1S2-His (monomeric S1S2 spike protein) (SARS-CoV-2, UniProt P0DTC2 14-1213); test: SPR; conditions: both partners purified
T1 construct: source: High Five insect cells, purified (HisExcel, SEC)

[2] = target: T2, SARS-CoV-2 RBD (High Five insect cells, 6x His-tag) (SARS-CoV-2, UniProt P0DTC2); test: SPR; conditions: both partners purified
T2 construct: source: High Five insect cells, purified (HisExcel, SEC)

B1: CVRBDL-3 (peptide)
peptide: HDFWWEYDKKNDTWTRRRR-NH2
notes: also called CVRDBL-3; CVRBD-3; source: synthetic peptide; bought: CASLO
- stoichiometry N [1]: 1
- stoichiometry N [2]: 1
